Reference: patent US20190233542A1 (WUXI BIOLOGICS IRELAND, published 2019)

Legend:
[1] = biological target: T1, human PCSK9 (Proprotein Convertase Subtilisin/Kexin type 9) (human, UniProt Q8NBP7 31-692, biotin label in the ELISA formats (site not stated)); test: cell-based or functional assay
[2] = biological target: mutant human PCSK9 (D374Y) (human, UniProt Q8NBP7 31-692); test: cell-based or functional assay
[3] = biological target: T1, human PCSK9 (Proprotein Convertase …); test: SPR
[4] = biological target: T1, human PCSK9 (Proprotein Convertase …); test: SPR, Biacore T200, antibody captured, PCSK9 as analyte
Description: (§1) Antibody binding affinity to human and rhesus PCSK9 was detected by SPR assay using Biacore T200. Each antibody was captured on a Protein A or or anti-human IgG Fc antibody immobilized CM5 sensor chip (GE). Human or rhesus PCSK9 at different concentrations were injected over the sensor chip at a flow rate of 30 μL/min for an association phase of 180 s, followed by 1200 s dissociation. The chip was regenerated by 2 M MgCl₂ after each binding cycle.
(§2) The sensorgrams for blank surface and buffer channel were subtracted from the test sensorgrams. The experimental data was fitted by 1:1 model using Langmiur analysis. Molecular weight of 85 KDa was used to calculate the molar concentration of analyte.
(§3) Kinetic affinities of antibody leads were measured by SPR assay.

human PCSK9-mFc-biotin [5] = biological target: T2, human PCSK9-mFc-biotin (human, UniProt Q8NBP7 31-692, biotin label (site not stated)); test: competitive ELISA, blocking of PCSK9 binding to LDL-R
T2 construct: not shown: murine Fc (mFc) fused at the C-terminus

[6] = biological target: T1, human PCSK9 (Proprotein Convertase …); test: binding ELISA on human PCSK9
rhesus PCSK9 = biological target: T3, rhesus PCSK9 (rhesus, UniProt A8T666 31-692, limits assumed); test: SPR, Biacore T200, antibody captured, monkey PCSK9 as analyte
T3 construct: A rhesus PCSK9-His from Sino Biological is named only for the ELISA of Section 4.3.2; also called monkey PCSK9; rhesus PCSK9-His
Description: as §1, §2, §3

[7] = biological target: T1, human PCSK9 (Proprotein Convertase …); test: SPR; remark: listed apart in the source
human PCSK9-mFc-biotin [8] = biological target: T2, human PCSK9-mFc-biotin; test: competitive ELISA, blocking of PCSK9-mFc-biotin binding to coated LDL-R
Description: Blocking assay by ELISA: Plates (Nunc) were coated with LDL-R overnight at 4° C. Hybridoma supernatants were mixed with 250 ng/ml PCSK9-mFc-biotin and incubated at 4° C. overnight. After blocking and washing, the mixture were added to the plates and incubated for 1 h. The plates were then washed and subsequently incubated with streptavidin- HRP. After washing, TMB substrate was added and the interaction was stopped by 2M HCl. The absorbance at 450 nm was read using a microplate reader (Molecular Device).
The activities of reference antibodies 12H11.1.uIgG4K and 24B9.1.uIgG4L to blocking the binding of PCSK9 to LDLR were evaluated by competitive ELISA (FIG. 30) according to the methods described in Section 2.4 Hybridoma screening of EXAMPLE 2.

[9] = biological target: T1, human PCSK9 (Proprotein Convertase …); test: ELISA on biotin-labeled PCSK9 captured on streptavidin, antibody diluted from human serum after 0 to 14 days at 37 C
[10] = biological target: T1, human PCSK9 (Proprotein Convertase …); test: ELISA on streptavidin-captured PCSK9-biotin
Description: Binding assay by ELISA: Plates (Nunc) were coated with Streptavidin at 1 μg/ml overnight at 4° C. After blocking and washing, 250 ng/ml PCSK9-biotin was added and incubated for 1 h. Then hybridoma supernatants were transferred to the plates and incubate at room temperature for 1 h. The plates were then washed and subsequently incubated with secondary antibody goat anti rat IgG1 HRP (Bethyl) and goat anti rat IgG2b HRP (Bethyl) for 45 min. After washing, TMB substrate was added and the interaction was stopped by 2M HCl. The absorbance at 450 nm was read using a microplate reader (Molecular Device).
The activities of reference antibodies 12H11.1.uIgG4K and 24B9.1.uIgG4L binding to human PCSK9 were confirmed by ELISA (FIG. 29), according to the method described in Section 2.4 Hybridoma screening of EXAMPLE 2.

[11] = biological target: T1, human PCSK9 (Proprotein Convertase …); test: cell-based or functional assay; remark: listed apart in the source
[12] = biological target: T1, human PCSK9 (Proprotein Convertase …); test: SPR, Biacore T200, antibody captured, PCSK9 as analyte; remark: listed apart in the source
Description: as §1, §2

[13] = biological target: T1, human PCSK9 (Proprotein Convertase …); test: cell-based or functional assay; remark: listed apart in the source

Row | Binder | IC50 of LDL-uptake restoration, HepG2 cells, PCSK9 (WT) [1] | IC50 of LDL-uptake restoration, Huh-7 cells, PCSK9 (WT) [1] | IC50 of LDL-uptake restoration, HepG2 cells, PCSK9 (D374Y) [2] | IC50 of LDL-uptake restoration, Huh-7 cells, PCSK9 (D374Y) [2] | Kd [4] | koff [4] | kon [4] | IC50 (human PCSK9-mFc-biotin [5]) | EC50 [6] | Kd (rhesus PCSK9) | koff (rhesus PCSK9) | kon (rhesus PCSK9) | IC50, LDL-uptake assay in HepG2 [13] | further results
1 | 18.156.8 (hIgG4) (antibody, V domains shown, human IgG4 constant region, kappa light chain) VH: QVQLVESGGGVVQPGRSLRLSCAASGFTFSSYGMHWVRQAPGKGLEWMAVIWYDGTNKYYADSVKGRFTISRDNSKNTVYLQMNSLRAEDTAVYYCAREKGLDWGQGTLVTVSS VL: not shown | 65.1 nM | 76.1 nM | 10.8 nM | 5.2 nM | 0.589 nM | 0.000146 s⁻¹ | 248000 M⁻¹ s⁻¹ | 1.22 nM | 0.028 nM | 0.0371 nM | 3.19e-05 s⁻¹ | 861000 M⁻¹ s⁻¹ | – | IC50 (human PCSK9-mFc-biotin [8]): 0.97 nM; EC50 (read off the curve) [9]: ~0.1 nM; EC50 [10]: 0.034 nM; EC50, LDL-uptake assay in HepG2 [11]: 156 nM; Kd [12]: 0.0688 nM; koff [12]: 4.47e-05 s⁻¹; kon [12]: 649000 M⁻¹ s⁻¹
2 | 15.14.2-uAb-IgG4L (antibody, V domains shown, human IgG4 constant region, lambda light chain) VH: EVQMLESGGGLVQPGGSLRLSCAVSGFTFSRFAMSWVRQAPGKGLDWVSSISDNAGRTYFADSVKGRFTISRDNSKNTLYLQMNSLRADDTAVYYCAKLSNWGPYGMDVWGQGTTVTVSS VL: QSALTQPPSASGSPGQSVTISCTGTSSDVGYYNYVSWYQQHPGEAPKLMIYEVNKRPSGVPDRFSGSKSGSTASLTVSGLQAVDEADYYCSSYAGSKNFVVFGGGTKLTVL | – | – | – | – | 0.25 nM | 8.09e-05 s⁻¹ | 324000 M⁻¹ s⁻¹ | 1.12 nM | 0.031 nM | 0.687 nM | 0.00031 s⁻¹ | 452000 M⁻¹ s⁻¹ | 80 nM | –
3 | 17.72.3-uAb2-IgG4K (antibody, V domains shown, human IgG4 constant region, kappa light chain) VH: QVQLQESGPGLVKPSGTLSLTCAVSGGSIRSYNWWSWVRQPPGEGLEWIGEIHHSGTTNYNPSLKSRVTISVDKSKNQFSLKLSSVTAADTAVYYCARDYSGSYFDYWGQGTLVTVSS VL: EVVLTQSPATLSLSPGERATLSCRTSQSLSSYVAWSQQKPGQAPRLLIYDASKRATGVPARFSGSGSGTDFTLTISNLEPEDFAVYYCHQRGNWMSSFGQGTKLEIK | – | – | – | – | 3.42 nM | 4.68e-05 s⁻¹ | 13700 M⁻¹ s⁻¹ | 1.67 nM | 0.036 nM | 20.5 nM | 0.00226 s⁻¹ | 110000 M⁻¹ s⁻¹ | 106 nM | –

More lines, main results first:

Row | IC50 of LDL-uptake restoration, HepG2 cells, PCSK9 (WT) [1] | IC50 of LDL-uptake restoration, Huh-7 cells, PCSK9 (WT) [1] | IC50 of LDL-uptake restoration, HepG2 cells, PCSK9 (D374Y) [2] | IC50 of LDL-uptake restoration, Huh-7 cells, PCSK9 (D374Y) [2] | Kd [4] | koff [4] | kon [4] | IC50 (human PCSK9-mFc-biotin [5]) | EC50 [6] | Kd (rhesus PCSK9) | koff (rhesus PCSK9) | kon (rhesus PCSK9) | IC50, LDL-uptake assay in HepG2 [13] | Binder | further results
4 | 38.3 nM | 63.7 nM | 2.3 nM | 2.7 nM | – | – | – | – | – | – | – | – | – | 40409 (hIgG2) (antibody, V domains shown) VH: QLNLQQSGPGLVNPSQTLSLTCAISGGSVSSNSAAWNWIRQSPSRGLEWLGRIYSRSKWYHDYAVSVKGRITINPDTSKNQFFLQLNSVTPEDTAVYYCARDWETIIWGDDGPNYYNYGLDVWGQGTTVTVSS VL: DIQMTQSPSSLSASVGDRVTITCRASQGIRNDLGWYQQKPGKAPKRLIYGASSLQSGVPSRFSGSGSGTEFTLTISSLQPEDFATYYCLQHNNYLWTFGQGTKVEIK | –
5 | – | – | – | – | 0.0523 nM | 9.05e-05 s⁻¹ | 1.73e+06 M⁻¹ s⁻¹ | 1.75 nM | 0.024 nM | 0.413 nM | 0.000939 s⁻¹ | 2.27e+06 M⁻¹ s⁻¹ | – | 40409 (hIgG4) (antibody, V domains shown, human IgG4 constant region) VH: QLNLQQSGPGLVNPSQTLSLTCAISGGSVSSNSAAWNWIRQSPSRGLEWLGRIYSRSKWYHDYAVSVKGRITINPDTSKNQFFLQLNSVTPEDTAVYYCARDWETIIWGDDGPNYYNYGLDVWGQGTTVTVSS VL: DIQMTQSPSSLSASVGDRVTITCRASQGIRNDLGWYQQKPGKAPKRLIYGASSLQSGVPSRFSGSGSGTEFTLTISSLQPEDFATYYCLQHNNYLWTFGQGTKVEIK | Kd [3]: 0.0523 nM; koff [3]: 9.05e-05 s⁻¹; kon [3]: 1.73e+06 M⁻¹ s⁻¹; fold further affinity improvement (over B4G2) [7]: 2 fold; fold higher affinity compared to BMK.115 [7]: 2 fold
6 | – | – | – | – | 17.5 nM | 0.000271 s⁻¹ | 15400 M⁻¹ s⁻¹ | 2 nM | 0.13 nM | 7.16 nM | 0.00441 s⁻¹ | 616000 M⁻¹ s⁻¹ | 115 nM | 19.3.8-uAb1-IgG4L (antibody, V domains shown, human IgG4 constant region, lambda light chain) VH: QVQLVQSGAEVKKPGASVKVSCKASGYTFTGYYINWVRQAPGQGLEWMGRINPNSGGTNYAQKFQGRVTMTRDTSINTAYMELSRLRSDDTAVYFCASWEGTVTTWDFYYYYGMDVWGQGTTVTVSS VL: QSALTQPASVSGSPGQSITISCTGTSSDVDTYNYVSWYQHHPGKAPKLIIFDVSNRPSGVSNRFSGSKSGNTASLTISGLQAEDEADYYCSSYTSSSTLVVFGGGTKLTVL | –
